# B1: MKK6 D-site peptide / p38-alpha (MAPK14) L195A, full length (parent complex)
# chain 1: SQSKGKKRNPGLKIPKEAFEQP
# chain 2: MSQERPTFYRQELNKTVWEVPERYQNLSPVGSGAYGSVCAAFDTKTGHRVAVKKLSRPFQSIIHAKRTYRELRLLKHMKHENVIGLLDVFTPARSLEEFNDVYLVTHLMGADLNNIVKCQKLTDDHVQFLIYQILRGLKYIHSADIIHRDLKPSNLAVNEDCELKILDFGLARHTDDEMTGYVATRWYRAPEIMANWMHYNQTVDIWSVGCIMAELLTGRTLFPGTDHIDQLKLILRLVGTPGAELLKKISSESARNYIQSLAQMPKMNFANVFIGANPLAVDLLEKMLVLDSDKRITAAQALAHAYFAQYHDPDDEPVAEPYDQSFESRDFLIDEWKSLTYDEVISFVPPPLDQEEMES
# Variants of: B1
row,Variant,screen value
1,chain 1 K16C,0.392 Z-score of the enrichment rate within one screen of 711 sequences
2,chain 1 K16P,0.798 Z-score of the enrichment rate within one screen of 711 sequences
3,chain 1 K16M,1.69 Z-score of the enrichment rate within one screen of 711 sequences
4,chain 1 K16L,1.28 Z-score of the enrichment rate within one screen of 711 sequences
5,chain 1 K16G,-0.443 Z-score of the enrichment rate within one screen of 711 sequences
6,"chain 1 N9A, chain 1 I14A",-0.573 Z-score of the enrichment rate within one screen of 711 sequences
7,"chain 1 K6A, chain 1 G11A",0.561 Z-score of the enrichment rate within one screen of 711 sequences
8,"chain 1 K4A, chain 1 I14A",-1.18 Z-score of the enrichment rate within one screen of 711 sequences
9,"chain 1 G5A, chain 1 N9A",1.1 Z-score of the enrichment rate within one screen of 711 sequences
10,chain 1 G11D,0.0949 Z-score of the enrichment rate within one screen of 711 sequences
11,chain 1 G11V,0.807 Z-score of the enrichment rate within one screen of 711 sequences
12,chain 1 G11K,2.23 Z-score of the enrichment rate within one screen of 711 sequences
13,chain 1 G11N,1.3 Z-score of the enrichment rate within one screen of 711 sequences
14,"chain 1 G5A, chain 1 I14A",-1.03 Z-score of the enrichment rate within one screen of 711 sequences
15,"chain 1 K13A, chain 1 P15A",-0.309 Z-score of the enrichment rate within one screen of 711 sequences
16,"chain 1 K4A, chain 1 L12A",-1.24 Z-score of the enrichment rate within one screen of 711 sequences
17,"chain 1 K6A, chain 1 R8A",-0.524 Z-score of the enrichment rate within one screen of 711 sequences
18,chain 1 I14L,3.12 Z-score of the enrichment rate within one screen of 711 sequences
19,chain 1 I14D,-0.97 Z-score of the enrichment rate within one screen of 711 sequences
20,chain 1 I14V,-0.578 Z-score of the enrichment rate within one screen of 711 sequences
21,chain 1 I14F,-0.0574 Z-score of the enrichment rate within one screen of 711 sequences
22,chain 1 I14E,-0.921 Z-score of the enrichment rate within one screen of 711 sequences
23,chain 1 I14A,-0.785 Z-score of the enrichment rate within one screen of 711 sequences
24,chain 1 I14H,-0.748 Z-score of the enrichment rate within one screen of 711 sequences

row,Variant,screen value
1,"chain 1 L12A, chain 1 I14A",-1.27 Z-score of the enrichment rate within one screen of 711 sequences
2,chain 1 L12R,-1.21 Z-score of the enrichment rate within one screen of 711 sequences
3,chain 1 L12D,-1.05 Z-score of the enrichment rate within one screen of 711 sequences
4,chain 1 L12E,-1.29 Z-score of the enrichment rate within one screen of 711 sequences
5,chain 1 K13E,-0.899 Z-score of the enrichment rate within one screen of 711 sequences
6,chain 1 K13R,1.63 Z-score of the enrichment rate within one screen of 711 sequences
7,chain 1 K13H,-0.111 Z-score of the enrichment rate within one screen of 711 sequences
8,chain 1 N9A,1.56 Z-score of the enrichment rate within one screen of 711 sequences
9,"chain 1 K4A, chain 1 R8A",-0.792 Z-score of the enrichment rate within one screen of 711 sequences
10,"chain 1 K4A, chain 1 K7A",-0.395 Z-score of the enrichment rate within one screen of 711 sequences
11,"chain 1 K6A, chain 1 P10A",-0.354 Z-score of the enrichment rate within one screen of 711 sequences
12,chain 1 K6N,0.746 Z-score of the enrichment rate within one screen of 711 sequences
13,chain 1 G5H,1.94 Z-score of the enrichment rate within one screen of 711 sequences
14,chain 1 G5Q,1.53 Z-score of the enrichment rate within one screen of 711 sequences
15,chain 1 G5L,4 Z-score of the enrichment rate within one screen of 711 sequences
16,chain 1 K7E,-0.535 Z-score of the enrichment rate within one screen of 711 sequences
17,"chain 1 G11A, chain 1 P15A",1.79 Z-score of the enrichment rate within one screen of 711 sequences
18,chain 1 K4N,0.364 Z-score of the enrichment rate within one screen of 711 sequences
19,chain 1 K4W,1.28 Z-score of the enrichment rate within one screen of 711 sequences
20,chain 1 K4T,0.747 Z-score of the enrichment rate within one screen of 711 sequences
21,chain 1 K4M,0.845 Z-score of the enrichment rate within one screen of 711 sequences
22,chain 1 K4S,0.887 Z-score of the enrichment rate within one screen of 711 sequences
23,"chain 1 K7A, chain 1 G11A",0.113 Z-score of the enrichment rate within one screen of 711 sequences

# More lines, now with the values ahead:
row,screen value,Variant
1,1.42 Z-score of the enrichment rate within one screen of 711 sequences,chain 1 S3V
2,1.62 Z-score of the enrichment rate within one screen of 711 sequences,chain 1 S3F
3,1.66 Z-score of the enrichment rate within one screen of 711 sequences,chain 1 S3L
4,2 Z-score of the enrichment rate within one screen of 711 sequences,chain 1 S3I
5,2.4 Z-score of the enrichment rate within one screen of 711 sequences,chain 1 S3W
6,-0.927 Z-score of the enrichment rate within one screen of 711 sequences,"chain 1 P10A, chain 1 K13A"
7,-0.936 Z-score of the enrichment rate within one screen of 711 sequences,"chain 1 S3A, chain 1 I14A"
8,0.46 Z-score of the enrichment rate within one screen of 711 sequences,"chain 1 S3A, chain 1 K7A"
9,0.988 Z-score of the enrichment rate within one screen of 711 sequences,"chain 1 S3A, chain 1 G11A"
10,1.54 Z-score of the enrichment rate within one screen of 711 sequences,chain 1 N9G
11,-0.389 Z-score of the enrichment rate within one screen of 711 sequences,chain 1 N9E
12,1.38 Z-score of the enrichment rate within one screen of 711 sequences,chain 1 N9C
13,0.914 Z-score of the enrichment rate within one screen of 711 sequences,chain 1 N9V
14,0.0592 Z-score of the enrichment rate within one screen of 711 sequences,chain 1 N9D
15,0.0482 Z-score of the enrichment rate within one screen of 711 sequences,"chain 1 P15A, chain 1 K16N"
16,-1.11 Z-score of the enrichment rate within one screen of 711 sequences,"chain 1 S3A, chain 1 L12A"
17,0.582 Z-score of the enrichment rate within one screen of 711 sequences,"chain 1 S3A, chain 1 K4A"
18,-0.954 Z-score of the enrichment rate within one screen of 711 sequences,"chain 1 P10A, chain 1 I14A"
19,-0.469 Z-score of the enrichment rate within one screen of 711 sequences,chain 1 P10D
20,0.911 Z-score of the enrichment rate within one screen of 711 sequences,chain 1 P10W
21,0.865 Z-score of the enrichment rate within one screen of 711 sequences,chain 1 P10F
22,0.621 Z-score of the enrichment rate within one screen of 711 sequences,chain 1 P10A
23,0.742 Z-score of the enrichment rate within one screen of 711 sequences,chain 1 P10V
24,0.378 Z-score of the enrichment rate within one screen of 711 sequences,chain 1 R8I
25,-1 Z-score of the enrichment rate within one screen of 711 sequences,chain 1 R8D
26,0.893 Z-score of the enrichment rate within one screen of 711 sequences,"chain 1 S3A, chain 1 K16A"
27,2.82 Z-score of the enrichment rate within one screen of 711 sequences,chain 1 P15A
28,0.521 Z-score of the enrichment rate within one screen of 711 sequences,"chain 1 S3A, chain 1 P10A"
